Test results from the supplement of paper PMC10567573.

B1: DYRK1B (parent)
chain: ARKYFERLPGGGWTLRRTKELRKD
B2: OR3A1 (parent)
chain: PMYFFLGNLSVLDVGCISVTVPSM

Variants of: B1
Assay: protein stability index of a GFP-peptide fusion (GPS, HEK-293T) (PSI 1-6); higher = more stable
Conditions: c terminus: a fixed tail appended
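Also: lentivirally expressed fusions sorted by FACS into six bins by GFP to DsRed ratio, PSI derived from sequencing read proportions per bin multiplied by bin number.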

Variant	protein stability index
ARKYFERLPGGGWTLRRTFELRKD [K19F]	3.01
ARKYFERLPGGGWTLRRTTELRKD [K19T]	3.41
ARKYFERLPGGGWTLRRTIELRKD [K19I]	2.87
ARKYFERLPGGGWTLRRTHELRKD [K19H]	3.08
ARKYFERLPGGGWTLRRTPELRKD [K19P]	3.97
ARKYFERLPGGGWTLRRTWELRKD [K19W]	2.35
ARKYFERLPGGGWTLRRTYELRKD [K19Y]	3.25
ARKYFERLPGGGWTLRRTDELRKD [K19D]	4.88
ARKYFERLPGGGWTLRRTMELRKD [K19M]	2.73
ARKYFERLPGGGWTLRRTSELRKD [K19S]	3.82
ARKYFERLPGGGWTLRRMKELRKD [T18M]	3.88
ARKYFERLPGGGWTLRRLKELRKD [T18L]	1.73
ARKYFERLPGGGWTLRRYKELRKD [T18Y]	2.26
ARKYFERLPGGGWTLRRDKELRKD [T18D]	4.05
ARKYFERLPGGGWTLRRVKELRKD [T18V]	3.69
ARKYFERLPGGGWTLRRIKELRKD [T18I]	3.93
ARKYFERLPGGGWTLRRPKELRKD [T18P]	3.57
ARKYFERLPGGGWTLRRRKELRKD [T18R]	3.72
ARKYFERLPGGGWTLRRTKQLRKD [E20Q]	3.26
ARKYFERLPGGGWTLRRTKSLRKD [E20S]	3.34
ARKYFERLPGGGWTLRRTKCLRKD [E20C]	3.69
ARKYFERLPGGGWTLRRTKKLRKD [E20K]	2.89
ARKYFERLPGGGWTLRRTKWLRKD [E20W]	2.76
ARKYFERLPGGGWTLRRTKLLRKD [E20L]	3.23
ARKYFERLPGGGWTLRRTKYLRKD [E20Y]	3.6

Variant	protein stability index
ARKYFERLPGGGWTLRRTKRLRKD [E20R]	3.3
ARKYFERLPGGGWTLRRTKGLRKD [E20G]	4.17
ARKYFERLPGGGWTLRRTKMLRKD [E20M]	3.38
ARKYFERLPGGGWTLRRTKNLRKD [E20N]	3.14
ARKYFERLPGGGWTLRRTKHLRKD [E20H]	1.79
ARKYFERLPGGGWTLRRTKDLRKD [E20D]	3.65
ARKYFERLPGGGWTLRRTKVLRKD [E20V]	3.47
ARKYFERLPGGGWTLRRTKILRKD [E20I]	2.04
ARKYFERLPGGGWTLRRTKALRKD [E20A]	4.5
ARKYFERLPGGGWTLRRTKFLRKD [E20F]	3.57
ARKYFERLPGGGWTLRRTKTLRKD [E20T]	3.27
ARKYFERLPGGGWTLRRTKELRYD [K23Y]	3.07
ARKYFERLPGGGWTLRRTKELRVD [K23V]	3.18
ARKYFERLPGGGWTLRRTKELRTD [K23T]	3.14
ARKYFERLPGGGWTLRRTKELRID [K23I]	2.58
ARKYFERLPGGGWTLRRTKELRND [K23N]	3.34
ARKYFERLPGGGWTLRRTKELRQD [K23Q]	2.83
ARKYFERLPGGGWTLRRTKELRPD [K23P]	3.1
ARKYFERLPGGGWTLRRTKELRDD [K23D]	2.72
ARKYFERLPGGGWTLRRTKELRLD [K23L]	2.81
ARKYFERLPGGGWTLRRTKELRHD [K23H]	3.33
ARKYFERLPGGGWTLRRTKEPRKD [L21P]	3.26
ARKYFERLPGGGWTLRRTKEGRKD [L21G]	3.95
ARKYFERLPGGGWTLRRTKEVRKD [L21V]	3.7
ARKYFERLPGGGWTLRRTKEHRKD [L21H]	3.95

Variant	protein stability index
ARKYFERLPGGGWTLRRTKEQRKD [L21Q]	3.88
ARKYFERLPGGGWTLRRTKEIRKD [L21I]	3.44
ARKYFERLPGGGWTLRRTKEKRKD [L21K]	3.73
ARKYFERLPGGGWTLRRTKECRKD [L21C]	4.41
ARKYFERLPGGGWTLRRTKEERKD [L21E]	4.62
ARKYFERLPGGGWTLRRTKEWRKD [L21W]	3.76
ARKYFERLPGGGWTLRRTKESRKD [L21S]	4.45
ARKYFERLPGGGWTTRRTKELRKD [L15T]	3.35
ARKYFERLPGGGWTRRRTKELRKD [L15R]	3.34
ARKYFERLPGGGWTDRRTKELRKD [L15D]	2.88
ARKYFERLPGGGWTIRRTKELRKD [L15I]	3.22
ARKYFERLPGGGWTNRRTKELRKD [L15N]	2.95
ARKYFERLPGGGWTHRRTKELRKD [L15H]	3.85
ARKYFERLPGGGWTCRRTKELRKD [L15C]	3.29
ARKYFERLPGGGWTQRRTKELRKD [L15Q]	3.65
ARKYFERLPGGGWTVRRTKELRKD [L15V]	4.02
ARKYFERLPGGGWTARRTKELRKD [L15A]	3.78
ARKYFERLPGGGWTKRRTKELRKD [L15K]	3.15
ARKYFERLPGGGWTMRRTKELRKD [L15M]	3.25
ARKYFERLPGGGWTPRRTKELRKD [L15P]	2.7
ARKYFERLPGGGWTYRRTKELRKD [L15Y]	3.73
ARKYFERLPGGGWVLRRTKELRKD [T14V]	2.91
ARKYFERLPGGGWYLRRTKELRKD [T14Y]	3.01
ARKYFERLPGGGWSLRRTKELRKD [T14S]	3.34
ARKYFERLPGGGWPLRRTKELRKD [T14P]	2.52

Variant	protein stability index
ARKYFERLPGGGWFLRRTKELRKD [T14F]	2.36
ARKYFERLPGGGWRLRRTKELRKD [T14R]	2.33
ARKYFERLPGGGWQLRRTKELRKD [T14Q]	2.9
ARKYFERLPGGGWWLRRTKELRKD [T14W]	2.72
ARKYFERLPGGGWKLRRTKELRKD [T14K]	3.34
ARKYFERLPGGGWTLFRTKELRKD [R16F]	1.69
ARKYFERLPGGGWTLYRTKELRKD [R16Y]	1.45
ARKYFERLPGGGWTLSRTKELRKD [R16S]	3.17
ARKYFERLPGGGWTLTRTKELRKD [R16T]	3.5
ARKYFERLPGGGWTLLRTKELRKD [R16L]	2.79
ARKYFERLPGGGWTLMRTKELRKD [R16M]	1.97
ARKYFERLPGGGWTLVRTKELRKD [R16V]	4.2
ARKYFERLPGGGWTLIRTKELRKD [R16I]	2.99
ARKYFERLPGGGWTLKRTKELRKD [R16K]	3.48
ARKYFERLPGGGWTLPRTKELRKD [R16P]	3.73
ARKYFERLPGGGWTLHRTKELRKD [R16H]	2.44
ARKYFERLPGGGWTLGRTKELRKD [R16G]	3.66
ARKYFERLPGGGWTLRRTKELRKW [D24W]	1.91
ARKYFERLPGGGWTLRRTKELRKK [D24K]	3.07
ARKYFERLPGGGWTLRRTKELRKC [D24C]	2.7
ARKYFERLPGGGWTLRRTKELRKI [D24I]	3.82
ARKYFERLPGGGWTLRRTKELRKE [D24E]	3.63
ARKYFERLPGGGWTLRRTKELRKH [D24H]	2.54
ARKYFERLPGGGWTLRRTKELRKF [D24F]	2.3
ARKYFERLPGGGWTLRRTKELRKT [D24T]	3.36

Variant	protein stability index
ARKYFERLPGGGWTLRRTKELRKL [D24L]	2.58
ARKYFERLPGGGWTLRRTKELRKG [D24G]	3.24
ARKYFERLPGGGWTLRRTKELRKA [D24A]	3.75
ARKYFERLPGGGWTLRRTKELRKQ [D24Q]	3.68
ARKYFERLPGGGWTLRRTKELRKR [D24R]	3
ARKYFERLPGGGWTLRRTKELNKD [R22N]	3.97
ARKYFERLPGGGWTLRRTKELLKD [R22L]	2.59
ARKYFERLPGGGWTLRRTKELKKD [R22K]	3.36
ARKYFERLPGGGWTLRRTKELQKD [R22Q]	3.9
ARKYFERLPGGGWTLRRTKELEKD [R22E]	4.04
ARKYFERLPGGGWTLRRTKELTKD [R22T]	4.19
ARKYFERLPGGGWTLRRTKELMKD [R22M]	3.88
ARKYFERLPGGGWTLRRTKELGKD [R22G]	4.3
ARKYFERLPGGGWTLRRTKELHKD [R22H]	3.5
ARKYFERLPGGGWTLRRTKELFKD [R22F]	3.59
ARKYFERLPGGGWTLRRTKELYKD [R22Y]	1.88
ARKYFERLPGGGWTLRRTKELPKD [R22P]	3.48
ARKYFERLPGGGWTLRRTKELAKD [R22A]	4.14
ARKYFERLPGGGHTLRRTKELRKD [W13H]	2.52
ARKYFERLPGGGRTLRRTKELRKD [W13R]	3.3
ARKYFERLPGGGETLRRTKELRKD [W13E]	4.05
ARKYFERLPGGGVTLRRTKELRKD [W13V]	3.07
ARKYFERLPGGGMTLRRTKELRKD [W13M]	3.54
ARKYFERLPGGGITLRRTKELRKD [W13I]	3.31
ARKYFERLPGGGLTLRRTKELRKD [W13L]	3.54

Variant	protein stability index
ARKYFERLPGGGDTLRRTKELRKD [W13D]	3.59
ARKYFERLPGGGKTLRRTKELRKD [W13K]	3.77
ARKYFERLPGGGNTLRRTKELRKD [W13N]	3.95
ARKYFERLPGGGTTLRRTKELRKD [W13T]	3.36
ARKYFERLPGGGFTLRRTKELRKD [W13F]	3.47
ARKYFERLPGGGPTLRRTKELRKD [W13P]	4.18
ARKYFERLPGGGCTLRRTKELRKD [W13C]	4.61
ARKYFERLPGGGGTLRRTKELRKD [W13G]	5.15
ARKYFERLPGGGWTLRSTKELRKD [R17S]	3.35
ARKYFERLPGGGWTLRDTKELRKD [R17D]	3.54
ARKYFERLPGGGWTLRVTKELRKD [R17V]	2.07
ARKYFERLPGGGWTLRWTKELRKD [R17W]	2.35
ARKYFERLPGGGWTLRNTKELRKD [R17N]	3.22
ARKYFERLPGGGWTLRKTKELRKD [R17K]	2.69
ARKYFERLPGGGWTLRFTKELRKD [R17F]	2.58
ARKYFERLPGGGWTLRCTKELRKD [R17C]	2.84
ARKYFERLPGGGWTLRPTKELRKD [R17P]	2.75
ARKYFERLPGGGWTLRITKELRKD [R17I]	2.03
ARKYFERLPGGGWTLRQTKELRKD [R17Q]	2.83
ARKYFERLPGGGWTLRETKELRKD [R17E]	3.46
ARKYFERLPGGGWTLRGTKELRKD [R17G]	3.6
ARKYFERLPGGGWTLRLTKELRKD [R17L]	2.43
ARKYFERLPGGGWTLRMTKELRKD [R17M]	2.38
ARKYFERLPGGGWTLRHTKELRKD [R17H]	3.2
ARKYFERLPGGGWTLRYTKELRKD [R17Y]	3.02

Variants of: B2
Assay: as above
Conditions: c terminus: a fixed tail appended

Variant	protein stability index
PMYFFLGNLMVLDVGCISVTVPSM [S10M]	3.29
PMYFFEGNLSVLDVGCISVTVPSM [L6E]	2.34
PMYDFLGNLSVLDVGCISVTVPSM [F4D]	2.63
PMYFFLGNLSVLDVGCISVEVPSM [T20E]	2.71
PMYFFLGNLSVLDVGCISVIVPSM [T20I]	2.43
PMYFFLGNLSVLDVGCISVNVPSM [T20N]	2.96
PMYFFLGNLSVLDVGCISVTVPDM [S23D]	4.24
PMYFFLGNLSVLDVGCISVTVPYM [S23Y]	4.04
PMYFFLGNLSVLDVGCISVTVPLM [S23L]	3.71
PMYFELGNLSVLDVGCISVTVPSM [F5E]	1.46
PMYFFLNNLSVLDVGCISVTVPSM [G7N]	1.99
PMYFFLGNLSVLDVGCISYTVPSM [V19Y]	2.93
PMYFFLGNLSVLDVGCISLTVPSM [V19L]	2.42
PMYFFLGNLSVLDVGCISETVPSM [V19E]	1.14
PMYFFLGNLSVEDVGCISVTVPSM [L12E]	1.85
PMYFFLGNLSVSDVGCISVTVPSM [L12S]	1.53
PMYFFLGNLSVLDVGCNSVTVPSM [I17N]	4.43
PMYFFLGNLSVLDVGCISVTIPSM [V21I]	2.55
PMYFFLGNLSVLDVGCISVTFPSM [V21F]	1.96

Variant	protein stability index
PMYFFLGNLSVLDVGCISVTNPSM [V21N]	3.36
PMYFFLGNLSVLDVGCISVTTPSM [V21T]	2.02
PMYFFLGNLSTLDVGCISVTVPSM [V11T]	2.86
PMYFFLGNLSLLDVGCISVTVPSM [V11L]	2.58
PMYFFLGNLSRLDVGCISVTVPSM [V11R]	3.13
PMYFFLGNLSVLDVDCISVTVPSM [G15D]	3.7
PMYFFLGNLSVLDRGCISVTVPSM [V14R]	1.39
PMYFFLGNLSVLDCGCISVTVPSM [V14C]	1.99
PMYFFLGNLSVLDVGPISVTVPSM [C16P]	2.85
PMYFFLGNLSVLDVGRISVTVPSM [C16R]	3.48
PMYFFLGNLSVLDVGSISVTVPSM [C16S]	3.15
RMYFFLGNLSVLDVGCISVTVPSM [P1R]	3.81
PMYFFLGNLSVLDVGCIHVTVPSM [S18H]	3.06
PMYFFLGNLSVLDVGCIAVTVPSM [S18A]	3.06
PEYFFLGNLSVLDVGCISVTVPSM [M2E]	2.1
PMYFFLGNLSVLDVGCISVTVVSM [P22V]	2.1
PMYFFLGNLSVLDVGCISVTVPSL [M24L]	1.24
PMYFFLGNLSVLDVGCISVTVPSD [M24D]	3.67
PMYFFLGNLSVLDVGCISVTVPSV [M24V]	3.3
